Laboratory results from US20250136687A1 (SHANDONG SIMCERE BIOPHARMACEUTICAL, published 2025).

Tests used:
[1] = target: T1, human CD3 on the cell surface (Jurkat cells, expanded human T cells, Jurkat-Lucia NFAT cells, human PBMC) (human, UniProt P07766 23-207; P04234 22-171; P09693 23-182); experiment: FACS, Jurkat cells
T1 construct: whole, on cells; Endogenous CD3 within the TCR-CD3 complex on cells (also zeta chains and TCR); the cell type is named under assay
Description: (§1) The binding of the chimeric antibodies to CD3 on the cell surface was analyzed by detecting the binding of the antibodies to Jurkat cells and human T cells. Suspension cells Jurkat cells were scale-up cultured in T-75 cell culture flasks to the logarithmic growth phase, the supernatant of the medium was discarded by centrifugation, and the cell pellet was washed 2 times with PBS for later use. The expanded human T cells were washed 2 times with PBS for later use. After counting the cells in the previous step, the cell pellet was resuspended with [PBS+2% (w/w) BSA] blocking solution to 4×10⁶ cells/ml, and added to a 96-well FACS reaction plate at 50 μl/well, and then the chimeric antibody to be tested was added at 50 μl/well, and incubated at 4° C. for 1 h. The cells were centrifuged and washed 3 times with a PBS buffer. […] The cells were centrifuged and washed 5 times with PBS, and FACS (FACS Canto™, purchased from BD Company) was used for detection and result analysis. Data analysis was performed by software (CellQuest) to obtain the mean fluorescence […] (MFI) of the cells. And then software (GraphPad Prism8) was used for analysis, data fitting, and EC50 value calculation. The same method was used to simultaneously detect the binding of the chimeric antibodies to endogenous CD3 negative cells MOLT4 cells.

[2] = target: T1, human CD3 on the cell surface (Jurkat …); experiment: cell-based or functional assay
[3] = target: T1, human CD3 on the cell surface (Jurkat …); experiment: FACS, expanded human T cells
Description: as §1

[4] = target: T2, cynomolgus monkey CD3 on the surface of expanded monkey T cells (cynomolgus monkey, UniProt Q95LI5 22-198; Q95LI8 22-171; Q95LI7 23-181); experiment: FACS, expanded monkey T cells
T2 construct: whole, on cells; Endogenous CD3 within the TCR-CD3 complex on T cells expanded from cynomolgus monkey PBMC
Description: as §1
FACS detection and data analysis were performed on the cryopreserved monkey T cells of Example 2.4 according to the method in Example 5.1.

[5] = target: T3, recombinant human CD3ε-ECD His protein (human, UniProt P07766 23-126); experiment: SPR (Biacore), antibody captured on Protein A chip
T3 construct: extracellular domain; also called human CD3ε-His; CD3ε antigen protein; not shown: His tag
Description: Sample buffer and running buffer were HBS-EP+(10 mM HEPES, 150 mM NaCl, 3 mM EDTA, 0.05% surfactant P20) (GE Healthcare; BR-1006-69). The flow-through cell was set to 25° C. The sample block was set to 16° C. Both were pretreated with the running buffer. In each cycle, the antibody to be detected was first captured with a Protein A chip, and then a single concentration of CD3ε antigen protein (purchased from Sino Biological, Inc. (China), catalog number: 10977-H08H) was injected. The binding and dissociation processes of the antibody and the antigen protein were recorded, and finally a glycine solution (pH 1.5, GE Healthcare; BR-1003-54) was used to complete chip regeneration. The binding was measured by injecting different concentrations of recombinant human CD3ε-ECD His proteins in a solution for 240 s with a flow rate of 30 μL/min. The concentration started from 200 nM (see the detailed results for the actual concentration in the test) and was diluted at 1:1, making a total of 5 concentrations. The dissociation phase was monitored for up to 600 s and was triggered by switching from sample solution to running buffer. The surface was regenerated by washing with a 10 mM glycine solution (pH 1.5) for 30 s at a flow rate of 30 μL/min. Bulk refractive index difference was corrected by subtracting the response obtained from the goat anti-human Fc surface. Blank injection was also subtracted (=double reference). For calculation of apparent KD and other kinetic parameters, Langmuir 1:1 model was used.

T1 sequence (P07766 23-207, chain 1 of 3): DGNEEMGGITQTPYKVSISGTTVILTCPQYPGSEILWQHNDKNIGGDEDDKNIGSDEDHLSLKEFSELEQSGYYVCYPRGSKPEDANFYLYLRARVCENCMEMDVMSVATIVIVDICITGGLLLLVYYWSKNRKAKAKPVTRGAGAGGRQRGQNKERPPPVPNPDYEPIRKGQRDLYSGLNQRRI
T1 sequence (P04234 22-171, chain 2 of 3): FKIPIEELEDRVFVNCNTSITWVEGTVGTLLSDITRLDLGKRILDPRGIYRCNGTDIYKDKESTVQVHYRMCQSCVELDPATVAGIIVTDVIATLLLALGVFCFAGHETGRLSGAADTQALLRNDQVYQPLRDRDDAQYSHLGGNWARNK
T1 sequence (P09693 23-182, chain 3 of 3): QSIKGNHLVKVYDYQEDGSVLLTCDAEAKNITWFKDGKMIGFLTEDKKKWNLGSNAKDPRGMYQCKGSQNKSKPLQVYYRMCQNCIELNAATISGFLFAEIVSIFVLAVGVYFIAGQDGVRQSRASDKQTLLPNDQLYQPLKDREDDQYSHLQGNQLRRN
T3 sequence (P07766 23-126): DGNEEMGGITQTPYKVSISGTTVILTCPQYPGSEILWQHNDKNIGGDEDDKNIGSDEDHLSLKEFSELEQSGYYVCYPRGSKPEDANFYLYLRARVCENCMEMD
T2 sequence (Q95LI8 22-171, chain 2 of 2): as the sequence (P04234 22-171, chain 2 of 3) above, with I5V, N15K, I20V, S32T, D33N, I34N, T64A, S74N, V83L, H141R counted along it
T2 sequence (Q95LI7 23-181, chain 3 of 2): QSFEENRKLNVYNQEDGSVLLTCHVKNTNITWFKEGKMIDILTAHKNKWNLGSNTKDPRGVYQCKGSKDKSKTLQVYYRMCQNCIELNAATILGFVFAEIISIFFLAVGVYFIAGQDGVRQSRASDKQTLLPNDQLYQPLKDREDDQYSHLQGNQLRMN

B1: 1-22.6 human-murine chimeric antibody (antibody, human IgG1, kappa, V domains shown)
VH: QIPLVQSGPELKKPGETVKISCKTSGYTFTSYGMSWVKQAPGKGLKWMGWINTYSGVPTYADDFKGRFVFSLDTSASTAFLQINNLKNEDTATYFCARLKNNPFCWGQGSTLTVFS
VL: DVLMTQSPLSLPVRLGDQASISCRSSQLILHSNGNTYLEWYLQKPGQSPKLLIYKVSNRFSGVPDRFSGSGSGTDFTLKISRVEAEDLGVYYCFQGSHFPWTFGGGTKLEIKR
EC50 [1]: 4.28 nM
MFI_Max [1]: 2080 MFI
EC50 (nM), luciferase reporter, Jurkat-Lucia NFAT cells [2]: 11.6 nM
Maximum response value (RLU) [2]: 31700 RLU
EC50 [3]: 18.1 nM
MFI_Max [3]: 15100 MFI
EC50 [4]: 5.51 nM
MFI_Max [4]: 43600 MFI
Kd [5]: 5.51 nM
koff [5]: 0.000699 s⁻¹
kon [5]: 127000 M⁻¹ s⁻¹
